Results from publication PMC3903617 (PLoS ONE, 2014).
Changes are numbered by the printed parent chain. Numbers in names are those of the source.

B1: 11K2 scFv mutein L-N31R (scFv, V domains shown)
VH: EVQLQQSGAELVKAGASVKLSCPASGLNIKDTYMHWVKQRPEQGLEWIGRIDPANGNTKFDPKFQGKATITADTSSNTAYLQLSSLTSEDTAVYYCARGVFGFFDYWGQGTTLTVSS
VL: DIQMTQSSSSFSVSLGDRVTITCKATEDIYRRLAWYQQKPGSAPRLLISGATSLETGVPSRFSGSGSGKDYTLSITSLQTEDVATYYCQQFWSAPYTFGGGTKLEIK
notes: PDB 2BDN heavy chain; PDB 2BDN light chain) with the stated change; also called L-D31R (printed once in the results)
B2: wild-type 11K2 scFv (scFv, V domains shown)
VH: B1 VH
VL: B1 VL with R31N
notes: VH of antibody 11K2; also the variable domain of the heavy chain of the 11K2 Fab in PDB 2BDN; linker of the scFv; VL of antibody 11K2; also the variable domain of the light chain of the 11K2 Fab in PDB 2BDN; also called WT; scFv 11K2
B3: 11K2 scFv mutein L-S53D (scFv, V domains shown)
VH: B1 VH
VL: B1 VL with R31N, S53D
notes: PDB 2BDN heavy chain; PDB 2BDN light chain) with the stated change
B4: 11K2 scFv mutein L-S53E (scFv, V domains shown)
VH: B1 VH
VL: B1 VL with R31N, S53E
notes: as for B3
B5: 11K2 scFv mutein L-T56E (scFv, V domains shown)
VH: B1 VH
VL: B1 VL with R31N, T56E
notes: as for B3
B6: 11K2 scFv mutein L-T56D (scFv, V domains shown)
VH: B1 VH
VL: B1 VL with R31N, T56D
notes: as for B3
B7: 11K2 scFv mutein H-L27K (scFv, V domains shown)
VH: B1 VH with L27K
VL: B1 VL with R31N
notes: PDB 2BDN heavy chain) with the stated change; PDB 2BDN light chain)
B8: 11K2 scFv mutein H-D31E (scFv, V domains shown)
VH: B1 VH with D31E
VL: B1 VL with R31N
notes: as for B7
B9: 11K2 scFv mutein H-N28Q (scFv, V domains shown)
VH: B1 VH with N28Q
VL: B1 VL with R31N
notes: as for B7
B10: 11K2 scFv mutein L-Y30K (scFv, V domains shown)
VH: B1 VH
VL: B1 VL with Y30K, R31N
notes: as for B3
B11: 11K2 scFv mutein H-L27R (scFv, V domains shown)
VH: B1 VH with L27R
VL: B1 VL with R31N
notes: as for B7
B12: 11K2 scFv mutein L-N31K (scFv, V domains shown)
VH: B1 VH
VL: B1 VL with R31K
notes: PDB 2BDN heavy chain; PDB 2BDN light chain) with the stated change; also called L-D31K (printed once in the results)

target: T1, monocyte chemo-attractant protein-1 (MCP-1) (Homo sapiens (Human)., UniProt P13500); test: SPR; ionic strength series: MCP-1 immobilised, scFv injected; running buffer with 137 mM NaCl; 25°C; settings: both partners purified
T1 construct: MCP-1 (monocyte chemo-attractant protein-1), chemokine; synthetic gene optimised for E. coli in pET26b; Probably the mature human chemokine, as in PDB 2BDN; also called monocyte chemotactic protein-1; antigen; source: E. coli Rosetta2 (DE3), purified (Ni-NTA, SEC)

Binder | Kd [nM] | kon [M⁻¹ s⁻¹]
B1 | 0.36 | 170000

target: T1, monocyte chemo-attractant protein-1 …; test: SPR; ionic strength series: MCP-1 immobilised, scFv injected; running buffer with 500 mM NaCl; 25°C; settings: both partners purified

Binder | Kd [nM]
B1 | 0.47

target: T1, monocyte chemo-attractant protein-1 …; test: SPR; temperature dependence of KD, van't Hoff approximation; MCP-1 immobilised, scFv injected; settings: both partners purified

Binder | dH [kcal/mol]
B2 | -7.3
B3 | -13.3
B4 | -15.1
B5 | -14.5
B6 | -11.7
B1 | -25.6

target: T1, monocyte chemo-attractant protein-1 …; test: SPR; Biacore T200; MCP-1 immobilised on a CM5 chip by amine coupling (~220 RU), scFv injected at 30 µl/min; PBS with 0.005% Tween-20; 25°C; global fit, 1:1 Langmuir model; KD from koff/kon; settings: both partners purified

Binder | Kd [nM] | koff [s⁻¹] | kon [M⁻¹ s⁻¹]
B2 | 0.8 | 0.0001 | 140000
B7 | 3.5 | 0.00039 | 110000
B3 | 0.61 | 5.5e-05 | 90000
B8 | 5 | 0.00015 | 30000
B4 | 0.19 | 1.4e-05 | 73000
B5 | 0.25 | 2.6e-05 | 100000
B9 | 8.5 | 0.0019 | 220000
B6 | 0.39 | 8.6e-05 | 220000
B10 | 2.5 | 0.00031 | 130000
B11 | 2.4 | 0.00033 | 140000
B1 | 0.17 | 2.2e-05 | 130000
B12 | 290 | 0.098 | 340000
